Reference: patent US20240277770A1, “SYSTEMS AND METHODS TO IDENTIFY MHC-ASSOCIATED ANTIGENS FOR THERAPEUTIC INTERVENTION” (GENENTECH, INC., priority 2021, published 2024)

Target: recombinant conditional HLA-A*02:01 complex (human)
Experiment: TR-FRET peptide exchange / HLA complex stability assay
Conditions: remark: other sources report otherwise

HMTEVVRHC (here or on the partner: biotinylated (BirA)) […] showed an RZ-score of 3.9.
